# Source: patent US20150337309A1
# Columns and labels:
# [1] = biological target: integrin αvβ3 on breast cancer cells (MCF7, 4T1, MDA-MB-231); experiment: cell-based or functional assay
# [2] = biological target: integrin αvβ5 on breast cancer cells (MCF7, 4T1, MDA-MB-231); experiment: cell-based or functional assay
substance,measurement,setting,value
"periostin (recombinant protein purchased from R&D system, as coated on wells or added to cells) (ligand)",cell adhesion to periostin-coated wells after treatment with anti-αvβ3 antibody,[1],50 % of control
same,cell adhesion to periostin-coated wells after treatment with anti-αvβ5 antibody,[2],50 % of control
